Laboratory results as given in patent US20230414780A1 (VECT HORUS, published 2023).

Assays:
[1] = target: T1, human transferrin receptor (hTfR) fused to EGFP, on CHO cells (human, UniProt P02786 1-760); assay: flow cytometry on CHO-hTfR-EGFP cells, 1 hr at 4 C, Alexa647 anti-hFc; apparent Kd, mean ± SEM of 3 experiments
T1 construct: whole, on cells; also called human TfR; CHO-hTfR-EGFP; not shown: EGFP from pEGFP-C1 vector, fused to the N-terminal (intracellular) end of hTfR
Method: (§1) FIGS. 8A-8B: Apparent Kd determination of VHH-Fcs and Fc-VHHs on hTfR- and mTfR-expressing CHO cell lines. (A) CHO-hTfR-EGFP and CHO-mTfR-EGFP cells were incubated 1 hr at 4° C. with various concentrations of VHH-Fcs or Fc-VHHs, detected with an Alexa647-conjugated anti-hFc antibody (1/400). Measurements were performed using flow cytometry. The ratio of fluorescence intensity for each point was normalized with the corresponding EGFP signal (receptor expression) and gave rise to the arbitrary unit. Data are presented as mean±SEM of 3 independent experiments. (B) Characteristics of selected VHH-Fcs and Fc-VHHs: Molecular Weight (Da); Apparent Kd on human TfR (nM); Apparent Kd on mouse TfR (nM). Data are presented as mean±SEM of 3 independent experiments.
(§2) The binding properties of VHH-Fc and Fc-VHH fusion proteins with an affinity for the TfR were tested in flow cytometry experiments, and apparent affinity (K_{d app}) were determined. All experiments were performed in 96 well plates using 2-3×10⁵ cells/well, at 4° C. with shaking. […] After washes, cells were incubated for 1 hr with an Alexa647-conjugated anti-hFc antibody (Jackson ImmunoResearch). After 3 last washes and cells resuspension in PBS, fluorescence was immediately measured using a MACSQuant flow cytometer (Miltenyi), and results were analyzed with the MACSQuant software. […] The VHH-Fc and Fc-VHH K_{d app} were calculated using GraphPad Prism software (FIG. 8-B).

[2] = target: T2, mouse transferrin receptor (mTfR) fused to EGFP, on CHO cells (mouse, UniProt Q62351 1-763); assay: flow cytometry on CHO-mTfR-EGFP cells, 1 hr at 4 C, Alexa647 anti-hFc; apparent Kd, mean ± SEM of 3 experiments
T2 construct: whole, on cells; also called mouse TfR; CHO-mTfR-EGFP; not shown: EGFP
Method: as §1, §2

[3] = target: T2, mouse transferrin receptor (mTfR) fused …; assay: apparent Kd, flow cytometry, CHO cells
Method: All experiments were performed in 96 well plates using 2×10⁵ cells/well, at 4° C. with shaking. CHO cell lines stably expressing the hTfR or the mTfR fused to EGFP or CHO WT cells were saturated with PBS/BSA 2% solution during 30 min to avoid non-specific binding, followed by incubation with purified VHHs at concentrations ranging from 50 μM to 5 μM for 1 hr. After one wash in PBS/BSA 2%, cells were incubated for 1 hr with an anti-6His tag antibody (mouse), washed twice with PBS/BSA 2%, and incubated for 45 min with an Alexa647-conjugated anti-mouse secondary antibody. After two last washes in PBS/BSA 2%, cells were fixed by incubation for 15 min with PBS/PFA 2%, washed once with PBS and finally resuspended in PBS and stored at 4° C. Fluorescence levels were assessed using an Attune NxT Flow Cytometer (Thermo Fisher Scientific). […] No labeling of the CHO WT control cells was detected with all the tested VHHs (not shown). The VHH K_{d app} were calculated using GraphPad Prism software (FIG. 11-B; 12-B).

[4] = target: T2, mouse transferrin receptor (mTfR) fused …; assay: flow cytometry on CHO-mTfR-EGFP cells, 1 hr at 4 C, Alexa647 anti-mouse; apparent Kd, mean ± SEM of 3 experiments
Method: FIGS. 13A-13B: Apparent Kd determination of 13C3-HC-VHH fusions on hTfR- and mTfR-expressing CHO cell lines. (A) CHO-hTfR-EGFP and CHO-mTfR-EGFP cells were incubated 1 hr at 4° C. with various concentrations of 13C3 fusions and detected with an Alexa647-conjugated anti-mouse antibody (1/400). Measurements were performed using flow cytometry. The ratio of fluorescence intensity for each point was normalized with the corresponding EGFP signal (receptor expression) and gave rise to the arbitrary unit. Data are presented as mean±SEM of 3 independent experiments. (B) Characteristics of 13C3 fusions: Molecular Weight (Da); Apparent Kd on human TfR (nM); Apparent Kd on mouse TfR (nM). Data are presented as mean±SEM of 3 independent experiments. NB: no binding, LB: low binding.
All experiments were performed in 96 well plates using 2×10⁵ cells/well, at 4° C. with shaking. CHO cell lines stably expressing the hTfR or the mTfR fused to EGFP or CHO WT cells were saturated with PBS/BSA 2% solution during 30 min to avoid non-specific binding, followed by incubation with purified VHHs at concentrations ranging from 50 μM to 5 μM for 1 hr. After one wash in PBS/BSA 2%, cells were incubated for 1 hr with an anti-6His tag antibody (mouse), washed twice with PBS/BSA 2%, and incubated for 45 min with an Alexa647-conjugated anti-mouse secondary antibody. After two last washes in PBS/BSA 2%, cells were fixed by incubation for 15 min with PBS/PFA 2%, washed once with PBS and finally resuspended in PBS and stored at 4° C. Fluorescence levels were assessed using an Attune NxT Flow Cytometer (Thermo Fisher Scientific).

T2 sequence (Q62351 whole entry, the tested form may be a part): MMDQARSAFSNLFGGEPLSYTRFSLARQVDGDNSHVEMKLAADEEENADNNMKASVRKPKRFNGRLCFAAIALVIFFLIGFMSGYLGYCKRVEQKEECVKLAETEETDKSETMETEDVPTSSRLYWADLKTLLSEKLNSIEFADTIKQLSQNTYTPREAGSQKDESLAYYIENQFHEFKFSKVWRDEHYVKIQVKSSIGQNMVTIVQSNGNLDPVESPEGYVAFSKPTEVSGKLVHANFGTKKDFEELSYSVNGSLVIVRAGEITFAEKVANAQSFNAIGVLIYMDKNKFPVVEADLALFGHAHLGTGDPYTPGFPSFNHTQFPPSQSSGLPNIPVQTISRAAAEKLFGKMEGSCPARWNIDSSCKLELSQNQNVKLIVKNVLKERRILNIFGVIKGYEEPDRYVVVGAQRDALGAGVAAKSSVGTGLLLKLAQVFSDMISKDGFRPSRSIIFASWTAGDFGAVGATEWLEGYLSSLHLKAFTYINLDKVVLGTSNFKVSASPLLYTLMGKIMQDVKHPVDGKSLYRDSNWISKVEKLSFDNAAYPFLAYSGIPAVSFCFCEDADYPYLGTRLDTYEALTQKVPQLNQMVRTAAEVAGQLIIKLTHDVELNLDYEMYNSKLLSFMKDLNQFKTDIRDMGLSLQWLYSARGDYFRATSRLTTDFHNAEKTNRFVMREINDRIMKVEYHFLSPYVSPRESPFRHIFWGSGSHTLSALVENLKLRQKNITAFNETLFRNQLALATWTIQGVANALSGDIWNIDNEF
T1 sequence (P02786 whole entry, the tested form may be a part): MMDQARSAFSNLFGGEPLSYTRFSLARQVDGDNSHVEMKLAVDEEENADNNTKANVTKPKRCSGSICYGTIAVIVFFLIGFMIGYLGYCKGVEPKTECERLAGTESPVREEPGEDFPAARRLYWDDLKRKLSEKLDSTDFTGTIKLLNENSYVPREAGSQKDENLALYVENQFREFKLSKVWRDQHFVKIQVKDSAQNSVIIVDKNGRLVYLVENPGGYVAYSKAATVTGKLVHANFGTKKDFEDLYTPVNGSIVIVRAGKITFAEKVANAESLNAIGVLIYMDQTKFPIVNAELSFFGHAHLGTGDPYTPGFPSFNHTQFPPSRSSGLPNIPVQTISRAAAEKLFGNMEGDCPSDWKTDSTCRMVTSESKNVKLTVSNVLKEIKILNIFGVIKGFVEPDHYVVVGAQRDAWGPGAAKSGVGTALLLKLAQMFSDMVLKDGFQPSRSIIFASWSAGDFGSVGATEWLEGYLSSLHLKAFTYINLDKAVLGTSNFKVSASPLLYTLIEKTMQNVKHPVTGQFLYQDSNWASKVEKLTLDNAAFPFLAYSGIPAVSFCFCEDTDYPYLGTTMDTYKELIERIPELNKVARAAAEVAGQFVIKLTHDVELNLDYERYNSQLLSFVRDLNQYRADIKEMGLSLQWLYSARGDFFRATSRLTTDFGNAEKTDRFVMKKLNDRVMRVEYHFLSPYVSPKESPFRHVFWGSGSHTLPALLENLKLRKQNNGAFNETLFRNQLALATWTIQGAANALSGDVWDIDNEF

B1: Fc-VHH A (Fc fusion)
VHH: EVQLVESGGGVVQPGGSLKLSCVASGTDFSINFIRWYRQAPGKQREFVAGFTATGNTNYADSMKGRFTISRDNTKNAVYLQIDSLKPEDTAVYYCYMLDKWGQGTQVTVSS
modifications: Genetic fusion with the VHH at the C-terminus of a human IgG1 Fc. It forms a homodimer, so it is bivalent.
notes: not shown: Human IgG1 Fc of the pINFUSE-IgG1-Fc2 vector (InvivoGen), N-terminal to the VHH, and any junction or linker residues
Work on B1 yielded a Kd [1] of 1.3 nM and a Kd [2] of 22 nM.

B2: 13C3-LC-VHH A (antibody)
light: DVVMTQTPLSLPVSLGDQASISCRSGQSLVHSNGNTYLHWYLQKPGQSPKLLIYTVSNRFSGVPDRFSGSGSGSDFTLKISRVEAEDLGVYFCSQNTFVPWTFGGGTKLEIKRADAAPTVSIFPPSSEQLTSGGASVVCFLNNFYPKDINVKWKIDGSERQNGVLNSWTDQDSKDSTYSMSSTLTLTKDEYERHNSYTCEATHKTSTSPIVKSFNRNECSGSGGGGGMAEVQLVESGGGVVQPGGSLKLSCVASGTDFSINFIRWYRQAPGKQREFVAGFTATGNTNYADSMKGRFTISRDNTKNAVYLQIDSLKPEDTAVYYCYMLDKWGQGTQVTVSSAAA
heavy: QVQLQQSGPELVRPGVSVKISCKGSGYTFTDYAMHWVKQSHAKSLEWIGVISTKYGKTNYNQKFKGKATMTVDKSSSTAYMELARLTSEDSAIYYCARGDDGYSWGQGTSVTVSSAKTTPPSVYPLAPGSAAQTNSMVTLGCLVKGYFPEPVTVTWNSGSLSSGVHTFPAVLQSDLYTLSSSVTVPSSTWPSETVTCNVAHPASSTKVDKKIVPRDCGCKPCICTVPEVSSVFIFPPKPKDVLTITLTPKVTCVVVDISKDDPEVQFSWFVDDVEVHTAQTQPREEQFNSTFRSVSELPIMHQDWLNGKEFKCRVNSAAFPAPIEKTISKTKGRPKAPQVYTIPPPKEQMAKDKVSLTCMITDFFPEDITVEWQWNGQPAENYKNTQPIMDTDGSYFVYSKLNVQKSNWEAGNTFTCSVLHEGLHNHHTEKSLSHSPG
B2 was tested, and the Kd [3] was 106 nM.

B3: 13C3-HC-VHH A (antibody, mouse IgG1)
heavy: QVQLQQSGPELVRPGVSVKISCKGSGYTFTDYAMHWVKQSHAKSLEWIGVISTKYGKTNYNQKFKGKATMTVDKSSSTAYMELARLTSEDSAIYYCARGDDGYSWGQGTSVTVSSAKTTPPSVYPLAPGSAAQTNSMVTLGCLVKGYFPEPVTVTWNSGSLSSGVHTFPAVLQSDLYTLSSSVTVPSSTWPSETVTCNVAHPASSTKVDKKIVPRDCGCKPCICTVPEVSSVFIFPPKPKDVLTITLTPKVTCVVVDISKDDPEVQFSWFVDDVEVHTAQTQPREEQFNSTFRSVSELPIMHQDWLNGKEFKCRVNSAAFPAPIEKTISKTKGRPKAPQVYTIPPPKEQMAKDKVSLTCMITDFFPEDITVEWQWNGQPAENYKNTQPIMDTDGSYFVYSKLNVQKSNWEAGNTFTCSVLHEGLHNHHTEKSLSHSPGGGGGMAEVQLVESGGGVVQPGGSLKLSCVASGTDFSINFIRWYRQAPGKQREFVAGFTATGNTNYADSMKGRFTISRDNTKNAVYLQIDSLKPEDTAVYYCYMLDKWGQGTQVTVSSAAA
light: DVVMTQTPLSLPVSLGDQASISCRSGQSLVHSNGNTYLHWYLQKPGQSPKLLIYTVSNRFSGVPDRFSGSGSGSDFTLKISRVEAEDLGVYFCSQNTFVPWTFGGGTKLEIKRADAAPTVSIFPPSSEQLTSGGASVVCFLNNFYPKDINVKWKIDGSERQNGVLNSWTDQDSKDSTYSMSSTLTLTKDEYERHNSYTCEATHKTSTSPIVKSFNRNEC
notes: mouse IgG1 13C3 (anti beta-amyloid protofibril) with VHH A at the C-ter of each heavy chain
In the case of B3, the Kd [4] is reported as 11.3 nM.

B4: 13C3-HC-VHH A8 (antibody)
heavy: QVQLQQSGPELVRPGVSVKISCKGSGYTFTDYAMHWVKQSHAKSLEWIGVISTKYGKTNYNQKFKGKATMTVDKSSSTAYMELARLTSEDSAIYYCARGDDGYSWGQGTSVTVSSAKTTPPSVYPLAPGSAAQTNSMVTLGCLVKGYFPEPVTVTWNSGSLSSGVHTFPAVLQSDLYTLSSSVTVPSSTWPSETVTCNVAHPASSTKVDKKIVPRDCGCKPCICTVPEVSSVFIFPPKPKDVLTITLTPKVTCVVVDISKDDPEVQFSWFVDDVEVHTAQTQPREEQFNSTFRSVSELPIMHQDWLNGKEFKCRVNSAAFPAPIEKTISKTKGRPKAPQVYTIPPPKEQMAKDKVSLTCMITDFFPEDITVEWQWNGQPAENYKNTQPIMDTDGSYFVYSKLNVQKSNWEAGNTFTCSVLHEGLHNHHTEKSLSHSPGGGGGMAEVQLVESGGGVVQPGGSLKLSCVASGTDFSINFIRWYRQAPGKQREFVAGFTATGNTNYADSMKGRFTISRDNTKNAVYLQIDSLKPEDTAVYYCYMLAKWGQGTQVTVSSAAA
light: DVVMTQTPLSLPVSLGDQASISCRSGQSLVHSNGNTYLHWYLQKPGQSPKLLIYTVSNRFSGVPDRFSGSGSGSDFTLKISRVEAEDLGVYFCSQNTFVPWTFGGGTKLEIKRADAAPTVSIFPPSSEQLTSGGASVVCFLNNFYPKDINVKWKIDGSERQNGVLNSWTDQDSKDSTYSMSSTLTLTKDEYERHNSYTCEATHKTSTSPIVKSFNRNEC
With B4 the Kd [3] was 315 nM.

B5: 13C3-HC-VHH A6 (antibody)
heavy: QVQLQQSGPELVRPGVSVKISCKGSGYTFTDYAMHWVKQSHAKSLEWIGVISTKYGKTNYNQKFKGKATMTVDKSSSTAYMELARLTSEDSAIYYCARGDDGYSWGQGTSVTVSSAKTTPPSVYPLAPGSAAQTNSMVTLGCLVKGYFPEPVTVTWNSGSLSSGVHTFPAVLQSDLYTLSSSVTVPSSTWPSETVTCNVAHPASSTKVDKKIVPRDCGCKPCICTVPEVSSVFIFPPKPKDVLTITLTPKVTCVVVDISKDDPEVQFSWFVDDVEVHTAQTQPREEQFNSTFRSVSELPIMHQDWLNGKEFKCRVNSAAFPAPIEKTISKTKGRPKAPQVYTIPPPKEQMAKDKVSLTCMITDFFPEDITVEWQWNGQPAENYKNTQPIMDTDGSYFVYSKLNVQKSNWEAGNTFTCSVLHEGLHNHHTEKSLSHSPGGGGGMAEVQLVESGGGVVQPGGSLKLSCVASGTDFSINFIRWYRQAPGKQREFVAGFTATGNTNYADSMKGRFTISRDNTKNAVYLQIDSLKPEDTAVYYCYALDKWGQGTQVTVSSAAA
light: DVVMTQTPLSLPVSLGDQASISCRSGQSLVHSNGNTYLHWYLQKPGQSPKLLIYTVSNRFSGVPDRFSGSGSGSDFTLKISRVEAEDLGVYFCSQNTFVPWTFGGGTKLEIKRADAAPTVSIFPPSSEQLTSGGASVVCFLNNFYPKDINVKWKIDGSERQNGVLNSWTDQDSKDSTYSMSSTLTLTKDEYERHNSYTCEATHKTSTSPIVKSFNRNEC
B5 showed a Kd [4] of 23 nM.

B6: Fc-VHH B (Fc fusion)
VHH: EVQLVESGGGVVQPGGSLRLSCAASGEIFSINFMRWYRQAPGKQREWVAGFTRDGSTNYPDSAKGRFTISRDNAKNTVYLQIDSLKPEDTAVYYCYMLDTWGQGTQVTVSS
modifications: Genetic fusion with the VHH at the C-terminus of a human IgG1 Fc. It forms a homodimer, so it is bivalent.
notes: as for B1
Work on B6 yielded a Kd [1] of 1.5 nM and a Kd [2] of 51 nM.

B7: VHH B-Fc (Fc fusion)
chain: EVQLVESGGGVVQPGGSLRLSCAASGEIFSINFMRWYRQAPGKQREWVAGFTRDGSTNYPDSAKGRFTISRDNAKNTVYLQIDSLKPEDTAVYYCYMLDTWGQGTQVTVSS
notes: not shown: human IgG1 Fc fragment of the pINFUSE-IgG1-Fc2 vector (InvivoGen)
B7 showed a Kd [1] of 1.2 nM and a Kd [2] of 0.61 nM.
